The target of experiment [1] is Full-length WT-IrtAB heterodimer reconstituted in nanodiscs (Mycolicibacterium thermoresistibile …, UniProt G7CBF5;G7CBF6). The experiment in a line: cryo-EM structure.
Experiment [2] concerns the target T1, WT-IrtABΔSID heterodimer in LMNG (Mycolicibacterium thermoresistibile …, point mutant).
T1 chain 1: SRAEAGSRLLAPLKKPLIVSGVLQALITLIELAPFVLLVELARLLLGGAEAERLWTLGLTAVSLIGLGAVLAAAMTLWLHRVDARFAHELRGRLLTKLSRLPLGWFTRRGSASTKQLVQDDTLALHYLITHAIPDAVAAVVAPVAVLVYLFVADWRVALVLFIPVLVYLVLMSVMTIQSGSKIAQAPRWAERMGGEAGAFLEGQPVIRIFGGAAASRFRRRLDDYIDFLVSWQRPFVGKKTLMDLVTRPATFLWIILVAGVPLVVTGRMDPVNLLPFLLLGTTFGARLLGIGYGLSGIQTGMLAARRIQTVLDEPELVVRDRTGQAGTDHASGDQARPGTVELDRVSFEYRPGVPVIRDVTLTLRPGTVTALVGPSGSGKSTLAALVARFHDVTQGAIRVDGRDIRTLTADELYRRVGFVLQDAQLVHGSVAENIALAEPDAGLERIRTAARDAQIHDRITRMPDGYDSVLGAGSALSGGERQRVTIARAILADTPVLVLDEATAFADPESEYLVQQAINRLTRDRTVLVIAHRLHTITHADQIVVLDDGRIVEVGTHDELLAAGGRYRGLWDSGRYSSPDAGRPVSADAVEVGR
T1 chain 2: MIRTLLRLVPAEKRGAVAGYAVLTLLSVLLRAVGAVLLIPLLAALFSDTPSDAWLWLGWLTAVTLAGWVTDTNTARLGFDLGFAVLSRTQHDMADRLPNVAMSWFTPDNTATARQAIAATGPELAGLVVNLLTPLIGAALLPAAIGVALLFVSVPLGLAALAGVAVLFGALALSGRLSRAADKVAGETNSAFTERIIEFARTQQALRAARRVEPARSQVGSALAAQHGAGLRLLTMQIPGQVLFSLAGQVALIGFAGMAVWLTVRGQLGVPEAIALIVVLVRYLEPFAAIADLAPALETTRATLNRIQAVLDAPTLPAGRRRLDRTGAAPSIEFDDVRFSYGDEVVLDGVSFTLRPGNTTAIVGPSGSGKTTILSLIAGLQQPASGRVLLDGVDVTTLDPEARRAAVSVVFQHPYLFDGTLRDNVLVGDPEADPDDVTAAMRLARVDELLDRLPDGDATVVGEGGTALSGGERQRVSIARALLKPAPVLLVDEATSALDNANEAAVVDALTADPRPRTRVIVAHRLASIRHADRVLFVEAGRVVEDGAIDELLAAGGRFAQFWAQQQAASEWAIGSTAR
Nature of the experiment: cryo-EM structure.

B1: IrtAB-specific sybody SybNL5 (VHH)
VHH: QVQLVESGGGLVQAGGSLRLSCAASGFPVSSSTMTWYRQAPGKEREWVAAINSYGYYTVYADSVKGRFTISRDNAKNTVYLQMNSLKPEDTAVYYCNVKDTGQMRESYDYWGQGTQVTVSA
With B1, the binding result in experiment [1] and in experiment [2] was “binds” each time.

These data come from publication PMC11779899 (Nature Communications, 2025).
